# Test results as given in the DeepSol protein solubility set.
# Assay: soluble on expression in E. coli; label from the status in PepcDB or PDB records
row,Sequence,soluble on expression in E. coli
1,MGSDKIHHHHHHAPLPQAPIPAPSMSLPGFHAPPPSTSNGTVASGAVRTQPARMPFYVATKGKVTIYVLGTLHVGDPADYPANQPFRRPILAALAASPTLALELSPDDLLESQDDVSKYGVCNYACLPRLLPPPLWQKLANRLRGNPAALAGIRNMRPWLASLVVETYDSLSAGLQTEYGTEAQLQNVFLRKKGGKVVGLETLAEQMRAFTGLTLAQQREMLAQDMVQTPAQNAADVRALHRLWRIGDADAIAAWANAKTERLARARSIADSIDNKIVYERNRRFVARMTAIAAPNRPLFVAIGSLHLGGPKGVLELLRQQGYRVDAG,not soluble
2,MKSSTMTSDYYKQTQIDQTLRLREVLKTLPPFAKDYFRAMEPKSSAKTRINYAYDIRVFFHFLLENNPIYKNYTMDQFRVQDLERIEPVDIEEYMEYLKVYKREDNEMITNGERGLKRKMSALRSFYSYYFKHQYIATNPTLLEHHHHHH,not soluble
3,AEAEFNNYCKIKCLKGGVHTACKYGSLKPNCGNKVVVSYGLTKQEKQDILKEHNDFRQKIARGLETRGNPGPQPPAKNMKNLVWNDELAYVAQVWANQCQYGHDTCRDVAKYQVGQNVALTGSTAAKYDDPVKLVKMWEDEVKDYNPKKKFSGNDFLKTGHYTQMVWANTKEVGCGSIKYIQEKWHKHYLVCNYGPSGNFKNEELYQTK,soluble
4,MKLVIDAGHGGYDSGAVGNGLVEKNLTLQIARRVRDILTVNYPITIKMTRDSDVFISLSERANIANAFSADYFISFHINSGGGTGFESYIYNALSNSSTAYAKQQKMHTAVNPVLTKYGLRDRGAKKENYAVLRETAMDAILTETAFIDTAFDANLLKNPQFIEDLSQAYANGIAAIFGVAPNPQPPNPQPVPQTKGIAYVLGKNVNLRNGPSTSSSVIRQLNSPESYVVYQESNGWLDLGNGQWVYNDSSYINFVKTSNSDGSPIGVAYIQGMNVNLRSGPSTTSAVIRQLNSPESYLVYINENGWLNLGGNQWVYNDPAYIKYTQY,not soluble
5,MIDDDGYRPNVGIVICNRQGQVMWARRFGQHSWQFPQGGINPGESAEQAMYRELFEEVGLSRKDVRILASTRNWLRYKLPKRLVRWDTKPVCIGQKQKWFLLQLVSGDAEINMQTSSTPEFDGWRWVSYWYPVRQVVSFKRDVYRRVMKEFASVVMSLQENTPK,soluble
6,MGSDKIHHHHHHMYIGCNWSKALKFLLEKDEVKIDYIKAGAYGDFENEFSTMRSMKPILIHGLGKFERTGMKDINLVDFDRANSIIKRCSSPHFGIHLEIKNSDMYEGMRDENIYEYMCKQIQTFKKNIEVPLLLENVPDSPIEHTVFDCYPYFQPKKLTKLFLDNNVDFLLDLTHAKITSKYHKIDVHEYLNGLPLERVREIHVNGSGYDEEGFPMDTHSSMEKEDYDLLRWVLTYSKPYVVTLEYAGTKKEKEADIIASLKTQLREIQNIIISR,not soluble
7,MGSDKIHHHHHHMISVGKGKIMITPDHNIIKPIAIVLPQFHPIRENNLWWGEGFTEWTNVVKGRPRFRGHYQPHLPKDLGYYDLRLPETRKAQAALATKYGIYGFCYYHYWFNGRRILESPVDAMLESGEPDFPFMLCWANENWTRNWDGSYNKVLLEQKYSKEDFVNHARHLIRYFKDDRYIKIDGRPVFAIYKDDIGEDIEKYLLLFRNELLKNSINVFLCRFERNIGTSRDLNRAFQVFDAGIEFQPLARQFSYLINYNNRLSRRIYKTLKKHFCFCKNIDDVYVYSHLVDNDLKYDFQQGWPIFPGVCPGWDNSARRRDTTAIIFDKSTPEIFKLWVREKIRITDWNLLPERFLFVNAWNEWAEGNHLEPCEKWGTQYLAALQAGINEM,not soluble
8,MLEQPIGVIDSGVGGLTVAKEIMRQLPKENIIYVGDTKRCPYGPRPEEEVLQYTWELTNYLLENHHIKMLVIACNTATAIALDDIQRSVGIPVVGVIQPGARAAIKVTDNQHIGVIGTENTIKSNAYEEALLALNPDLKVENLACPLLVPFVESGKFLDQTADEIVKTSLYPLKDTSIDSLILGCTHYPILKEAIQRYMGEHVNIISSGDETAREVSTILSYKGLLNQSPIAPDHQFLTTGARDQFAKIADDWFGHEVGHVECISLQEPIKR,soluble
9,MGSDKIHHHHHHMIEVEIDKDSGFCFGVVTAIESAERELGNTDTLYCLGDIVHNSLEVERLEHMGLHTIDHEGLSRLRDRKVLLRAHGEPPSTYALAKRNNITIIDATCPVVLRLQRKIHKCYQETRANNTQLVIYGKKGHAEVNGLVGQTEGTAIVIEKIEDLDRLDFTRAISLFSQTTKSLDGFKAVVAEIKQRMAEGVEFNYYDTICRQVANRLPNIKAFASSHDWVYFVAGRKSSNGKMLFEECRKANPNTLFISEVSEITEPLPEGVRRVGVCGATSTPKWLMEEVAVRIKELNASE,not soluble
10,MSLKIVDATVLVTCPGRNFVTLRITTDEGVTGLGDATLNGREQAVVAYLREHVVPLLLGTDPHRIEDTWQSLYRGAYWRRGPVTMAAIAAVDVALWDIKAKVANLPLYQLLGGASRERVRTYGHANGRDIPELLDSVRARQAEGYQAIRVQTGVPGLRKVYGVHTGEAIAHNPTRLDQRAVPVVEDWDTPAYLRHLPTVLEAVRNEFGPELPLLHDAHHRLTPLQAAKLGKDVERYDLFWLEDCTPAENQEAFRLVRHHTTTPLAVGEVFNTVFDYQTLIAEQLIDYARSAVTHFGGVSALRKLFDFAAQHQVKSAIHGPEDISPVGMAAAIHLDLAVHNFGIQEYSGHTDATNEVFRHAYTFTDGHLHPGEAPGIGVDYDEELAAAHPYDPAYLPVNRLADGTVHDWEGHHHHHH,not soluble
11,MAHHHHHHMLRIGICHFSRQEPQVIGTSVPSFRHFPYRAQDVLHLYRDFLRLIHQHPPQERADLLFRLHNEFYRRRHLTSPKMITGAIKRGEGILNVQRSMLESKTLRARGVSSREQGAQNVDGLWDQLQMLSGHVLPGLRNFRPSRNVLKGSYTQQATTQAVYSRRRL,not soluble
12,MGKALIIGCGGVASVAVHKCVQNSEVFEEICIASRTKSKCDALKAKLDGGKTKITTAQVDANNVDELIALIEEVKPDVVMNLALPYQDLTIMDACLATKTNYLDTANYEPEDTAKFEYKWQWDYRERFEKAGITALLGSGFDPGVTGVFSAYALKHHFDEIEYIDILDCNAGDHGYPFATNFNPEINIREVSANGRYWENGEWVETNPMEIKRVYNFPEVGEKDMYLLYHEELESLAVNIPGIKRIRFFMTFSESYLTHLKCLENVGMTSIEPIEFEGKEIIPLQFLKAVLPDPASLGPRTKGKTNIGCIFKGKKDGKDKTYYLYNVCDHEECYKEVGSQAVSYTTGVPAMIGAMMLMTGKWNKPGVYNIEEFDPDPFMEALNKWGLPWKEDHNPQLVDSDPIKETELVR,not soluble
13,MAGQEDPVQREIHQDWANREYIEVITSSIKKIADFLNSFDMSCRSRLATLNEKLTALERRIEYIEARVTKGETLT,soluble
14,MADAEGDPLQAFWTQVVRLRDLLKFDFYFADSAAFHQNVAEEMSWHADWEQQVRAGRDGIETLMRAKRPLLADAMLRPYFEAYTIVADVLRDAPAEIAEKDLTKLALGVGQQYVAQGRVRNNESVSALLFATARQVAADQGLLEHGPDLMEQRRAFRDELRGILRDLDTVDRYARELFAARERERRTKRDEAVLEHHHHHH,not soluble
15,MAHHHHHHMIGELVLLIGDFHSPMRNLGLPDCFKDLLKTDKIKHVLCTGNVGCRENLELLKNIADSVHITKGDMDDEYDFPEDTSLTIGDFKISLIHGHQIIPWGDTNALLQWQKKYDSDIVISGHTHKNSIVRYEGKYFINPGSATGAFQPWLSQPTPSFILMAVAKSSIVVYVYEEKNGKTNVEMSEL,soluble
16,GHHHHHHAIAENLYFQSEDPVFTFGLIADVQYADIEDGENYLRTRRRYYRGSADLLRDAVLQWRRERVQCVVQLGDIIDGHNRRRDASDRALDTVMAELDACSVDVHHVWGNHEFYNFSRPSLLSSRLNSAQRTGTDTGSDLIGDDIYAYEFSPAPNFRFVLLDAYDLSVIGREEESEKHTHSWRILTQHNHNLQDLNLPPVSVGLEQRFVKFNGGFSEQQLQWLDAVLTLSDHKQERVLIFSHLPVHPCAADPICLAWNHEAVLSVLRSHQSVLCFIAGHDHDGGRCTDSSGAQHITLEGVIETPPHSHAFATAYLYEDRMVMKGRGRVEDLTITYS,soluble
17,MGSDKIHHHHHHMPPFILNSQNVFDYLSSLNLCTLEEGESSKIELKPAKNFNLLITFPEGRKLLVKQERHNLEGKTTGEFVLEWRIHDFVSRFPELNHIRSYLSEAIYFNWENSIIIFNYLDNYRDLMDFYVKENLNLFPTQLANAVGTTLALIHRTSFNCEEYRDFFQNPGESKSNPKTPHLNRGLDRLTPEIFGKVPADGLRFFALYQRYDSLGQAIAQLINSFTPCCLTHNDLKLNNILVSLDWEDIGDENIVRLIDWERGSWGDPANDLGTLIASYLQIWLYSMVTGKSIAIEESLRLAATPLYVLQPSLRELVIAYLTHFPEILEHHPDFLQRVMQFCGLALITAIQAQLQYEKTFGNVGICMLQVAKSLLCRPEASVQTIFGVQLSDLSPVSLSQV,not soluble
18,MTVRVGDPELVLDPYDYDFHEDPYPYYRRLRDEAPLYRNEERNFWAVSRHHDVLQGFRDSTALSNAYGVSLDPSSRTSEAYRVMSMLAMDDPAHLRMRTLVSKGFTPRRIRELEPQVLELARIHLDSALQTESFDFVAEFAGKLPMDVISELIGVPDTDRARIRALADAVLHREDGVADVPPPAMAASIELMRYYADLIAEFRRRPANNLTSALLAAELDGDRLSDQEIMAFLFLMVIAGNETTTKLLANAVYWAAHHPGQLARVFADHSRIPMWVEETLRYDTSSQILARTVAHDLTLYDTTIPEGEVLLLLPGSANRDDRVFDDPDDYRIGREIGCKLVSFGSGAHFCLGAHLARMEARVALGALLRRIRNYEVDDDNVVRVHSSNVRGFAHLPISVQAR,not soluble
19,MRFIHTSDWHLGKSLEGHSRIEEQAKFCEEFIKIVESNEIDMVIIAGDVYDTSNPPAQAEKLFYQTVSRLANNGQRCVLIISGNHDNPERLSAITPLAHEQGILIYGYPLSATIEAKYKGFEITYATQGCTKLNINGENIVVATLPYPSEKRLNEVFSSEDEFEKQKNYSEKVGDIFRSLEENFRSDTINIAVSHIFVIGGESTESERPIQLGGSFLVERKDLPEKAQYTALGHLHKQQKASERLNAYYSGSPLQYSKDERAYTKGAYIVDIKAGEKPIIEDVYFNNYKPIEVFKCNGIEEALDICEQNQDREIWSYFEINTDEIISQNEIKKMKELLKDIIEIKPIITSCYEQESVDIKEKSMAELFREFYSFSKGVEPKGELMDLFLDIISEEGESADETN,not soluble
20,MSLPITLDKKLPAVDILKSENIFVMDDKRAIHQDIRPMSILILNLMPTKVATETQLLRLLANTPLQLSVDFLYMTSHHSKTTQAEHMKTFYKTFKDIKDNYYDGLIITGAPVETMPFEKVDYWEELCQVFQWSKTHVYSTLHLCWGAQAGLYYRYSVDKVQMTDKLSGIYLQKVNEQLSPLMRGFDDCFLSPHSRYTEVLLKDINNKTNLEILASGEKVGLSILASRDMREVYSFGHLEYDRETLDNEYKRDLKAGKSPKIPENYYQDDDVTTHPIMRWNLAAATFFSNWINYAVYQETPYRLEELEKDISFYGYLEGHHHHHH,soluble
21,MANFPASLLILNGKSADNQPLREAITLLRDEGIQIHVRVTWEKGDAQRYVDEARRLGVETVIAGGGDGTINEVSTALIQIRDGVAPALGLLPLGTANDFATSAGIPEALDKALKLAIAGNAMEIDMAMVNDKTCFINMATGGFGTRITTETPEKLKAALGGVSYLIHGLMRMDTLTPDRCEIRGENFHWQGDALVIGIGNGRQAGGGQQLCPTALINDGLLQLRIFTGEELLPALFSTLTQSDDNPNIIDGASAWFDIHAPHEITFNLDGEPLSGQEFHIEVLPGALRCRLPPDCPLLR,soluble
